The text below walks through data of patent US20150140009A1.

Assay [1] has as its target TNFR2/p75 on BM-derived EPCs of TNFR1/p55 knockout mice (mouse) (UniProt P25119). The experiment in a line: cell-based or functional assay.
The target of assay [2] is TNF-α in conditioned medium of 1 Gy γ-irradiated mouse BM-derived EPCs (IR-CM) (mouse) (UniProt P06804). As to the kind of experiment: cell-based or functional assay.
Sequence of UniProt P06804 (P06804 80-235 limits assumed): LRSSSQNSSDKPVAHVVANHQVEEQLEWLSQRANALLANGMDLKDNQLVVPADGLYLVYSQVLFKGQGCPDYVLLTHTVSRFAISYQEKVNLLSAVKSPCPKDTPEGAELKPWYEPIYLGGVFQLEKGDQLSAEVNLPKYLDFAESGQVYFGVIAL

Sequence of UniProt P25119 (P25119 23-474): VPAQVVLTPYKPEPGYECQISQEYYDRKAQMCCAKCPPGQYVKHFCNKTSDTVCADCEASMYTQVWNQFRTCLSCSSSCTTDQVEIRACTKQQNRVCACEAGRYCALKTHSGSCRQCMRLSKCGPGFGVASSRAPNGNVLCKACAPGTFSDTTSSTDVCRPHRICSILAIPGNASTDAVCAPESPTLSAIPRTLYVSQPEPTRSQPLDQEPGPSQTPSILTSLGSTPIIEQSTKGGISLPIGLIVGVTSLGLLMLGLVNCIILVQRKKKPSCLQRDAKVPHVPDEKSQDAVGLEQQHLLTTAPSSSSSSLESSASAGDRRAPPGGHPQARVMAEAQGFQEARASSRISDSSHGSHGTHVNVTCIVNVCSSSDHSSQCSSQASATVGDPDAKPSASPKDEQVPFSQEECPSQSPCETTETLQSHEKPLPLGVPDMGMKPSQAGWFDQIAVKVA

For the substance “mouse recombinant TNF-α (Cat. 34-8321-82; eBiosciences) (from UniProt P06804 80-235) (ligand)”, the mean p-H2AX foci/cell count, naïve p55KO EPCs, 24 h with TNF (100 pg/ml, 1, 40 ng/ml), all cells counted; control 0.98 in assay [1] was 2.8 to 3.9 foci/cell.

In assay [2], “TNF-α neutralizing antibody (Cat. 506309, BioLegend)” came in with a formation of p-H2AX foci in EPCs treated with γ-IR conditioned media after neutralizing TNF of 2 fold; a mean p-H2AX foci/cell, naïve WT EPCs, 24 h treatment with 3-day IR-CM treated with TNF-α neutralizing antibody of 3.2 foci/cell; a mean p-H2AX foci/cell, naïve WT EPCs, 24 h treatment with 5-day IR-CM treated with TNF-α neutralizing antibody of 3.5 foci/cell; a mean p-H2AX foci/cell, naïve WT EPCs, 24 h treatment with 1 h IR-CM treated with TNF-α neutralizing antibody of 2.4 foci/cell. In assay [2], this substance returned a mean p-H2AX foci/cell, naïve WT EPCs, 24 h treatment with 5 h IR-CM treated with TNF-α neutralizing antibody of 4.3 foci/cell; a mean p-H2AX foci/cell, naïve WT EPCs, 24 h treatment with 24 h IR-CM treated with TNF-α neutralizing antibody of 5 foci/cell; a mean p-H2AX foci/cell, naïve p55KO EPCs, 24 h treatment with 3-day IR-CM treated with TNF-α neutralizing antibody of 4.9 foci/cell; a mean p-H2AX foci/cell, naïve p55KO EPCs, 24 h treatment with 5-day IR-CM treated with TNF-α neutralizing antibody of 3.5 foci/cell. For the same substance, in assay [2], the mean p-H2AX foci/cell, naïve p55KO EPCs, 24 h treatment with 1 h IR-CM treated with TNF-α neutralizing antibody was determined as 3.7 foci/cell; the mean p-H2AX foci/cell, naïve p55KO EPCs, 24 h treatment with 5 h IR-CM treated with TNF-α neutralizing antibody amounted to 3.6 foci/cell; the mean p-H2AX foci/cell, naïve p55KO EPCs, 24 h treatment with 24 h IR-CM treated with TNF-α neutralizing antibody worked out at 4.2 foci/cell.
